Experiment [1] concerns the target PSD-95 PDZ1-2 6xHis (human). The experiment is described as follows: ITC. On the technique in general: In ITC the heat of successive injections is recorded.
The target in experiment [2] is PSD-95 PDZ1 6xHis (human). The experiment is described as follows: ITC.

B1: Stargazin_CT (aa 203-323) (domain or fragment)
chain: DRHKQLRATARATDYLQASAITRIPSYRYRYQRRSRSSSRSTEPSHSRDASPVGVKGFNTLPSTEISMYTLSRDPLKAATTPTATYNSDRDNSFLQVHNCIQKDSKDSLHANTANRRTTPV
The term Kd denotes the constant that tells how readily two partners part at equilibrium. A low value points to a tighter complex. For the molecule B1, the Kd came to 12 µM in experiment [1] and 100 µM in experiment [2].
